The experiment deals with sulfite reductase tagged with a C-terminal GFP S11 (SEQ ID NO: 16). Briefly: cell-based or functional assay.

In turn, “Split-CFP S1-10 (D19E, D21E, Y66W, H148D, T205S)” yielded a Final Fluorescence (Ident. A2) of 4110, a Final Fluorescence (Ident. A3) of 1990, a Final Fluorescence (Ident. A6) of 5000 and a Final Fluorescence (Ident. A8) of 2360. The substance also displayed a Final Fluorescence (Ident. A9) of 4990, a Final Fluorescence (Ident. A10) of 4930, a Final Fluorescence (Ident. B1) of 4790 and a Final Fluorescence (Ident. B2) of 3260. This substance also displayed a Final Fluorescence (Ident. B3) of 2360, a Final Fluorescence (Ident. B4) of 1760, a Final Fluorescence (Ident. B5) of 2740 and a Final Fluorescence (Ident. B6) of 2950. In addition, the Final Fluorescence (Ident. C2) worked out at 2250, the Final Fluorescence (Ident. C3) was found to be 2200, the Final Fluorescence (Ident. C5) stood at 2540 and the Final Fluorescence (Ident. C9) amounted to 1830. For the same substance, the Final Fluorescence (Ident. D5) worked out at 2420, the Final Fluorescence (Ident. D9) was determined as 1340, the Final Fluorescence (Ident. D12) turned out to be 3130 and the Final Fluorescence (Ident. E1) was 4830. The substance also returned a Final Fluorescence (Ident. E2) of 1690, a Final Fluorescence (Ident. E3) of 1980, a Final Fluorescence (Ident. E5) of 1800 and a Final Fluorescence (Ident. E6) of 2560. The substance further had a Final Fluorescence (Ident. F1) of 4070, a Final Fluorescence (Ident. F2) of 1800, a Final Fluorescence (Ident. F3) of 2290 and a Final Fluorescence (Ident. F4) of 1540. The same substance yielded a Final Fluorescence (Ident. F5) of 2900, a Final Fluorescence (Ident. F7) of 2850, a Final Fluorescence (Ident. F9) of 2710 and a Final Fluorescence (Ident. G1) of 4400. The substance further registered a Final Fluorescence (Ident. G3) of 2410, a Final Fluorescence (Ident. G6) of 2580, a Final Fluorescence (Ident. G7) of 2130 and a Final Fluorescence (Ident. H1) of 4140. Besides, the Final Fluorescence (Ident. H4) came to 2360, the Final Fluorescence (Ident. H7) turned out to be 3870, the Final Fluorescence (Ident. H8) is 2820 and the Initial Rate (Ident. A2) is 14100. The substance further gave an Initial Rate (Ident. A3) of 8810, an Initial Rate (Ident. A6) of 18800, an Initial Rate (Ident. A8) of 11700 and an Initial Rate (Ident. A9) of 17700. In addition, the Initial Rate (Ident. A10) stood at 16900, the Initial Rate (Ident. B1) amounted to 15700, the Initial Rate (Ident. B2) was found to be 11900 and the Initial Rate (Ident. B3) came out at 8260. The substance further showed an Initial Rate (Ident. B4) of 9110, an Initial Rate (Ident. B5) of 10300, an Initial Rate (Ident. B6) of 10600 and an Initial Rate (Ident. C2) of 7890. For the same substance, the Initial Rate (Ident. C3) turned out to be 7950, the Initial Rate (Ident. C5) was found to be 9490, the Initial Rate (Ident. C9) stood at 7200 and the Initial Rate (Ident. D5) stood at 8850. The Initial Rate (Ident. D9) was found to be 7490, the Initial Rate (Ident. D12) came out at 12000, the Initial Rate (Ident. E1) is 11700 and the Initial Rate (Ident. E2) turned out to be 7780. Further, the Initial Rate (Ident. E3) was found to be 6770, the Initial Rate (Ident. E5) amounted to 6370, the Initial Rate (Ident. E6) was 9260 and the Initial Rate (Ident. F1) is 9890. Also, the Initial Rate (Ident. F2) was determined as 6690, the Initial Rate (Ident. F3) amounted to 7600, the Initial Rate (Ident. F4) stood at 7760 and the Initial Rate (Ident. F5) amounted to 10200. The substance further had an Initial Rate (Ident. F7) of 10000, an Initial Rate (Ident. F9) of 9770, an Initial Rate (Ident. G1) of 11000 and an Initial Rate (Ident. G3) of 10800. The substance also displayed an Initial Rate (Ident. G6) of 11900, an Initial Rate (Ident. G7) of 9680, an Initial Rate (Ident. H1) of 10000 and an Initial Rate (Ident. H4) of 10400. This substance also yielded an Initial Rate (Ident. H7) of 12900 and an Initial Rate (Ident. H8) of 10900.

Consider “Split-CFP S1-10 (D19E, D21E, Y66W, H148D, T205S, S208L)”, for which the Final Fluorescence (Ident. C4) turned out to be 2270, the Final Fluorescence (Ident. G5) was 1360, the Initial Rate (Ident. C4) stood at 7790 and the Initial Rate (Ident. G5) is 6070.

On to “Split-CFP S1-10 (D19E, D21N, Y66W, H148D, T205S)”, for which the Final Fluorescence (Ident. A7) was found to be 2550, the Final Fluorescence (Ident. C6) stood at 1120, the Final Fluorescence (Ident. C7) was 1730 and the Final Fluorescence (Ident. C8) came to 1010. Moreover, the Final Fluorescence (Ident. C10) worked out at 1720, the Final Fluorescence (Ident. D7) stood at 744, the Final Fluorescence (Ident. D10) came to 1200 and the Final Fluorescence (Ident. E8) amounted to 1140. Besides, the Final Fluorescence (Ident. G2) is 1910, the Final Fluorescence (Ident. G8) amounted to 1420, the Final Fluorescence (Ident. G9) amounted to 1700 and the Final Fluorescence (Ident. H3) came to 2130. Moreover, the Final Fluorescence (Ident. H5) came to 2000, the Final Fluorescence (Ident. H9) was found to be 1340, the Initial Rate (Ident. A7) is 8100 and the Initial Rate (Ident. C6) was 3590. The substance also had an Initial Rate (Ident. C7) of 6280, an Initial Rate (Ident. C8) of 4550, an Initial Rate (Ident. C10) of 6180 and an Initial Rate (Ident. D7) of 3120. The same substance registered an Initial Rate (Ident. D10) of 4290, an Initial Rate (Ident. E8) of 5330, an Initial Rate (Ident. G2) of 3790 and an Initial Rate (Ident. G8) of 9440. Besides, the Initial Rate (Ident. G9) came out at 7820, the Initial Rate (Ident. H3) worked out at 6870, the Initial Rate (Ident. H5) stood at 5750 and the Initial Rate (Ident. H9) amounted to 7800.

“Split-CFP S1-10 (D19E, D21N, Y66W, S99T, H148D, T205S)” returned a Final Fluorescence (Ident. B9) of 703, a Final Fluorescence (Ident. C12) of 1740, an Initial Rate (Ident. B9) of 2230 and an Initial Rate (Ident. C12) of 5120.

As to “Split-CFP S1-10 (D19E, Y66W, H148D, T205S) (from UniProt P42212 1-214)”, the Final Fluorescence (Ident. A5) is 2860 and the Initial Rate (Ident. A5) came to 9770.

“Split-CFP S1-10 (D21E, Y66W, H148D, T205S) (from UniProt P42212 1-214)” had a Final Fluorescence (Ident. G4) of 5100 and an Initial Rate (Ident. G4) of 13000.

“Split-CFP S1-10 (D21N, Y66W, H148D, T205S) (from UniProt P42212 1-214)”: the Final Fluorescence (Ident. A12) worked out at 990, the Final Fluorescence (Ident. B12) came out at 1790, the Initial Rate (Ident. A12) came to 3060 and the Initial Rate (Ident. B12) was found to be 4900.

“Split-CFP S1-10 (D21N, Y66W, T205S) (from UniProt P42212 1-214)” displayed a Final Fluorescence (Ident. F12) of 868 and an Initial Rate (Ident. F12) of 1980.

Substance “Split-CFP S1-10 (V16I, D19E, D21E, Y66W, H148D, T205S)” had a Final Fluorescence (Ident. B8) of 1640, a Final Fluorescence (Ident. B10) of 3340, a Final Fluorescence (Ident. D2) of 3360 and an Initial Rate (Ident. B8) of 8930. The Initial Rate (Ident. B10) was 11500 and the Initial Rate (Ident. D2) was found to be 11500.

“Split-CFP S1-10 (V16I, D21E, Y66W, T205S) (from UniProt P42212 1-214)” yielded a Final Fluorescence (Ident. E12) of 1070 and an Initial Rate (Ident. E12) of 2040.

Take “Split-CFP S1-10 (Y66W, H148D, T205S) (from UniProt P42212 1-214)”: the Final Fluorescence (Ident. D1) is 8860, the Final Fluorescence (Ident. D4) was 3740, the Final Fluorescence (Ident. D6) stood at 4100 and the Final Fluorescence (Ident. D8) was 3750. The same substance registered a Final Fluorescence (Ident. E4) of 3280, a Final Fluorescence (Ident. F8) of 1310, a Final Fluorescence (Ident. H2) of 6570 and an Initial Rate (Ident. D1) of 14500. In addition, the Initial Rate (Ident. D4) is 7990, the Initial Rate (Ident. D6) worked out at 10000, the Initial Rate (Ident. D8) is 8440 and the Initial Rate (Ident. E4) amounted to 7280. The substance further returned an Initial Rate (Ident. F8) of 3820 and an Initial Rate (Ident. H2) of 9060.

For the substance “Split-CFP S1-10 (Y66W, T205S) (from UniProt P42212 1-214)”, the Final Fluorescence (Ident. G12) stood at 382, the Final Fluorescence (Ident. H12) amounted to 425, the Initial Rate (Ident. G12) worked out at 3740 and the Initial Rate (Ident. H12) amounted to 3600.

As to “Split-CFP plate clone F6 (D19E, D21E, H148D, T205S) (from UniProt P42212 1-214)”, the Final Fluorescence (Ident. F6) came to 2910 and the Initial Rate (Ident. F6) came out at 10900.

Take “Split-YFP S1-10 (C70S, T203Y) (from UniProt P42212 1-214)”: the Green Fluorescence (488/510) (clone F3) was 10.5, the Ratio Yellow/Green Fluorescence (clone F3) is 11.4 and the Yellow Fluorescence (510/532) (clone F3) turned out to be 120.

With “Split-YFP S1-10 (R80K, T203Y) (from UniProt P42212 1-214)”, the Green Fluorescence (488/510) (clone H1) turned out to be 7.41, the Ratio Yellow/Green Fluorescence (clone H1) amounted to 18.7 and the Yellow Fluorescence (510/532) (clone H1) came out at 138.

Regarding “Split-YFP S1-10 (S99F, T203Y, T205S) (from UniProt P42212 1-214)”, the Green Fluorescence (488/510) (clone G11) came out at 7.47, the Ratio Yellow/Green Fluorescence (clone G11) was 18.9 and the Yellow Fluorescence (510/532) (clone G11) was 141.

As for “Split-YFP S1-10 (T9N, T65L, T203Y, T205S) (from UniProt P42212 1-214)”, the Green Fluorescence (488/510) (clone C5) was 5.07, the Ratio Yellow/Green Fluorescence (clone C5) was 20.9 and the Yellow Fluorescence (510/532) (clone C5) is 106.

Regarding “Split-YFP S1-10 (T65A, T203Y, T205S) (from UniProt P42212 1-214)”, the Green Fluorescence (488/510) (clone C4) was determined as 7.17, the Ratio Yellow/Green Fluorescence (clone C4) is 10.6 and the Yellow Fluorescence (510/532) (clone C4) amounted to 76.2.

For the substance “Split-YFP S1-10 (T65G, P192H, T203Y, T205S) (from UniProt P42212 1-214)”, the Green Fluorescence (488/510) (clone D3) worked out at 7.15, the Ratio Yellow/Green Fluorescence (clone D3) was determined as 17.9 and the Yellow Fluorescence (510/532) (clone D3) stood at 128.

Turning to “Split-YFP S1-10 (T65G, S99F, T203Y, T205S) (from UniProt P42212 1-214)”, the Green Fluorescence (488/510) (clone E11) came to 4.51, the Ratio Yellow/Green Fluorescence (clone E11) was 22.5 and the Yellow Fluorescence (510/532) (clone E11) worked out at 101.

For the origin of these results see US20120282643A1.
